Earlier results, collected in publication PMC5473928.
Several values for one entry are separate records, joined by “and”; a condition that tells them apart may be missing. Equal values may be shown once.

Molecular target: SOS allosteric site (Homo sapiens) (UniProt Q07889)

- Kd: 3.6 µM and 10 µM
Substance: KRas (from UniProt P01116)
